Key:
[1] = biological target: hACE2-fc dimer (human) (UniProt Q9BYF1); assay: SPR
[2] = biological target: SARS-CoV-2 S1-S2-His-T4 trimer (SARS-CoV-2 (wt; Wuhan strain)); assay: SEC

Chain of UniProt Q9BYF1 (Q9BYF1 18-740): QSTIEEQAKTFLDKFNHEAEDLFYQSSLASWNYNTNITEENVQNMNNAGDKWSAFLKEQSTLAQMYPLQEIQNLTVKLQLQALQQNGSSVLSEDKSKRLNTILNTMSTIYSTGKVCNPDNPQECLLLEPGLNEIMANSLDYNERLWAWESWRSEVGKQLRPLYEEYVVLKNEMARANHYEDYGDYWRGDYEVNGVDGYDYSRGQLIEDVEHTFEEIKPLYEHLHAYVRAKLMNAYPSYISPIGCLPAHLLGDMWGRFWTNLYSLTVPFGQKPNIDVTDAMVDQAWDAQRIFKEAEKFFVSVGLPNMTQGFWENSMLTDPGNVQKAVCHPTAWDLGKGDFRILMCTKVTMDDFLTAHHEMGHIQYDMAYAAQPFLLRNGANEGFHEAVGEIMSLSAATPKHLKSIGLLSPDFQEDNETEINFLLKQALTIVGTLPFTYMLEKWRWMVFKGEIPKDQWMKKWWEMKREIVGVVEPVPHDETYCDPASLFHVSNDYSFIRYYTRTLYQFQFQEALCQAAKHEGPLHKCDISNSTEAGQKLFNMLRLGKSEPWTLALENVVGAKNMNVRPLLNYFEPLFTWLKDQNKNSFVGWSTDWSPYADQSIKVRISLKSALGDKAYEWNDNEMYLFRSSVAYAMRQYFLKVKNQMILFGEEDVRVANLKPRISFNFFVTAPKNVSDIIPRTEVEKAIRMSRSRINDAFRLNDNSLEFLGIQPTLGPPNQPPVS

SARS-CoV-2 S1-S2-His-T4 trimer (domain or fragment)
KD1 (two-state fit, primary binding) [1]: 1.8 nM
Kd [1]: 0.04 nM
ka1 (two-state fit, primary binding) [1]: 780000 M⁻¹ s⁻¹
ka2 (two-state fit, secondary transition) [1]: 0.011 M⁻¹ s⁻¹
kd1 (two-state fit, primary binding) [1]: 0.0014 s⁻¹
kd2 (two-state fit, secondary transition) [1]: 0.00024 s⁻¹
stoichiometry N [2]: 3

Source: publication PMC9278102
